Results published in paper PMC4102245, “A molecular model for the role of SYCP3 in meiotic chromosome organisation” (eLife, 2014).
Substitutions are numbered along the chain they refer to.

Columns and labels:
[1] = target: SYCP3_(ΔNt6) (full length human SYCP3 with 69-EVQNML-74 mutated to alanines) (human) (UniProt Q8IZU3); assay: SEC-MALS; Superdex 200 Increase 10/300 GL, 20 mM Tris pH 8.0, 500 mM KCl; oligomer size of the eluted peak
[2] = target: SYCP3_(ΔCt6) (human SYCP3 amino acids 1–230) (human) (UniProt Q8IZU3); assay: as above
[3] = target: the molecule itself; assay: SEC-MALS; Superdex 200 10/300 GL, 100 μl of 2–3 mg/ml, 20 mM Tris pH 8.0, 500 mM KCl, 25°C; oligomer size of the eluted peak
[4] = target: the molecule itself; assay: SEC-MALS; Superdex 200 Increase 10/300 GL, 20 mM Tris pH 8.0, 500 mM KCl; oligomer size of the eluted peak
SYCP3 dCt6 WT = target: T1, SYCP3 dCt6 WT (human, UniProt Q8IZU3 1-230); assay: fluorescence anisotropy; Kd per SYCP3 tetramer; 20 mM Tris pH 8.0, 150 mM KCl; FA at 25 C with 25 nM DNA (0-20 uM protein); EMSA 5 min at 4 C with 18.7 uM (per bp) DNA (0-40 uM protein), 0.5% agarose, 0.5x TBE; details: protein: recombinant; tags: N-terminal His6, TEV-cleaved; chain copies: 4; label: 5' FAM
T1 sequence: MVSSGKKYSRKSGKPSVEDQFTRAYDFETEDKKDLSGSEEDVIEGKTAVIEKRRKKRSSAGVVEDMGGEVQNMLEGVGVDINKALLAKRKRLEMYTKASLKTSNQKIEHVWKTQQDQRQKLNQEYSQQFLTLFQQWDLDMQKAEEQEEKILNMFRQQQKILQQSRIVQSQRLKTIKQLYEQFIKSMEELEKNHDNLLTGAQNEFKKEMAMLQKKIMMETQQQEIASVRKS

[5] = target: the molecule itself; assay: SEC-MALS; Superdex 200 10/300 GL, 100 μl of 2–3 mg/ml, 20 mM Tris pH 8.0, 150 mM KCl, 25°C; oligomer size of the eluted peak

## SYCP3_(ΔNt6) (full length human SYCP3 with 69-EVQNML-74 mutated to alanines) (from UniProt Q8IZU3 1-236)
[1]
  stoichiometry N: 4

## SYCP3_(ΔCt6) (human SYCP3 amino acids 1–230) (from UniProt Q8IZU3 1-230) (domain or fragment)
[2]
  stoichiometry N: 4

B1: SYCP3FL (full length human SYCP3, amino acids 1–236) (natural protein, UniProt Q8IZU3 1-236, looked up)
chain: MVSSGKKYSRKSGKPSVEDQFTRAYDFETEDKKDLSGSEEDVIEGKTAVIEKRRKKRSSAGVVEDMGGEVQNMLEGVGVDINKALLAKRKRLEMYTKASLKTSNQKIEHVWKTQQDQRQKLNQEYSQQFLTLFQQWDLDMQKAEEQEEKILNMFRQQQKILQQSRIVQSQRLKTIKQLYEQFIKSMEELEKNHDNLLTGAQNEFKKEMAMLQKKIMMETQQQEIASVRKSLQSMLF
notes: Synaptonemal complex protein 3 (SYCP3), human, Swissprot Q8IZU3, amino acids 1-236 (full length); The methods tell no TEV cleavage for SYCP3FL (only Ni-NTA and buffer exchange), so the His6 tag may have been kept; the printed theoretical tetramer size is 111 kDa; also called full length SYCP3; source: E. coli BL21(DE3) Rosetta2, purified (Ni-NTA, buffer exchange into 20 mM Tris pH 8.0, 500 mM KCl)
[3]
  stoichiometry N: 4

B2: SYCP3_(ΔCt6) ΔBP1 (amino acids 1–230, BP1 52-KRRKKR-57 mutated to alanines) (domain or fragment, human, UniProt Q8IZU3 1-230, looked up)
chain: T1 sequence with K52A, R53A, R54A, K55A, K56A, R57A
notes: Synaptonemal complex protein 3 (SYCP3), human, Swissprot Q8IZU3, amino acids 1-230 with basic patch 1 mutated to alanines; source: E. coli BL21(DE3) Rosetta2, purified as described for wild type SYCP3_(ΔCt6); not shown: His6, N-terminal, cleaved
[4]
  stoichiometry N: 4

B3: SYCP3_(ΔCt6) ΔBP1+2 (amino acids 1–230, BP1 and BP2 mutated to alanines) (domain or fragment, human, UniProt Q8IZU3 1-230, looked up)
chain: T1 sequence with K52A, R53A, R54A, K55A, K56A, R57A, K88A, R89A, K90A, R91A
notes: Synaptonemal complex protein 3 (SYCP3), human, Swissprot Q8IZU3, amino acids 1-230 with both basic patches mutated to alanines; source: E. coli BL21(DE3) Rosetta2, purified as described for wild type SYCP3_(ΔCt6); not shown: His6, N-terminal, cleaved
[4]
  stoichiometry N: 4

B4: SYCP3_(ΔCt6) ΔBP2 (amino acids 1–230, BP2 88-KRKR-91 mutated to alanines) (domain or fragment, human, UniProt Q8IZU3 1-230, looked up)
chain: T1 sequence with K88A, R89A, K90A, R91A
notes: Synaptonemal complex protein 3 (SYCP3), human, Swissprot Q8IZU3, amino acids 1-230 with basic patch 2 mutated to alanines; source: E. coli BL21(DE3) Rosetta2, purified as described for wild type SYCP3_(ΔCt6); not shown: His6, N-terminal, cleaved
[4]
  stoichiometry N: 4

B5: 60 bp FAM-dsDNA (dsDNA)
DNA 1: ATGGTGTGTGTAGGTTAATGTGAGGAGGAGAGGTGAAGAAGGAGGAGAGAAGAAGGAGGC
DNA 2: GCCTCCTTCTTCTCTCCTCCTTCTTCACCTCTCCTCCTCACATTAACCTACACACACCAT
SYCP3 dCt6 WT
  Kd: 200 nM

B6: SYCP3_(Core) (human SYCP3 amino acids 66–230) (domain or fragment, UniProt Q8IZU3 66-230, looked up)
chain: MGGEVQNMLEGVGVDINKALLAKRKRLEMYTKASLKTSNQKIEHVWKTQQDQRQKLNQEYSQQFLTLFQQWDLDMQKAEEQEEKILNMFRQQQKILQQSRIVQSQRLKTIKQLYEQFIKSMEELEKNHDNLLTGAQNEFKKEMAMLQKKIMMETQQQEIASVRKS
notes: Synaptonemal complex protein 3 (SYCP3), human, Swissprot Q8IZU3, amino acids 66-230; Cloned in pHAT4 with an N-terminal TEV-cleavable His6 tag; homotetramer by SEC-MALS, AUC and crystal structure; also called SYCP_(Core); not shown: His6, N-terminal, cleaved
[5]
  stoichiometry N: 4
